First the molecules themselves.
B1: Hairpin Ribozyme (parent)
chain: GUCCUCUUUCACGUGCGCGUGAAAGAGAGAAGUGAACCAGAGAAACACACGUUGUGGUAUAUUACCUGGUA

The variants in this data set derive from B1. The experiment in a line: self-cleavage, relative activity (ratio to wild type); higher = more cleavage; co-transcriptional.
For the variant GUCCUCCUUCACGUGCGCGUUAAAGAGAGAAGUGAACCAGAGAAACACACGUUGUGGUAUAUUACCUGGUA, the self-cleavage was 0.565.
As to GUCCUCCUUCACGUGCGCUUGAAAGAGAGAAGUGAACCAGAGAAACACACGUUGUGGUAUAUUACCUGGUA, the self-cleavage was 0.68.
In the case of GUCCUCCUUCACGUGCGCGAGAAAGAGAGAAGUGAACCAGAGAAACACACGUUGUGGUAUAUUACCUGGUA it was 0.82; in that of GUCCUCCUUCACGUGCGCGCGAAAGAGAGAAGUGAACCAGAGAAACACACGUUGUGGUAUAUUACCUGGUA, 1.14; in that of GUCCUCCUUCACGUGCGCGUGAAAGAGAGAAGUGAACCAUAGAAACACACGUUGUGGUAUAUUACCUGGUA, 0.163.
For GUCCUCCUUCACGUGCGCGUGAAAGAGAGAAGUGAACCAGAGAAACACACGUUGUGGUAUAUUACCUGGGA, the self-cleavage is 0.877.
On to GUCCUCCUUCACGAGCGCGUGAAAGAGAGAAGUGAACCAGAGAAACACACGUUGUGGUAUAUUACCUGGUA, for which the self-cleavage was found to be 0.808.
Next, GUCCUCCUUCACGUGCGCGUGAAAGAGAGAAGUGAACCAGAGAAACACACGUUAUGGUAUAUUACCUGGUA: 0.525; GUCCUCCUUCACGUGCGCGUGAAAGAGAGAAGUGAACCAGAGAAACACACGUUGUGGUAUAUCACCUGGUA: 0.256; GUCCUCCUUCACGUGCGCGUGAAAGAGAGAAGUGAACCAGAGAAACACACGUUGAGGUAUAUUACCUGGUA: 0.167.
In the case of GUCCUCCUUCACGUGCGCGUGAAAGAGAGAAGUGAACCAGAGAAACACACGUUGGGGUAUAUUACCUGGUA it was 0.344.
GUCCUCCUUCACGUGCGCGUGAAAGAGAGAAGUGAACCAGAGAAACACACGUUGCGGUAUAUUACCUGGUA: the self-cleavage came out at 0.418.
Consider GUCCUCCUACACGUGCGCGUGAAAGAGAGAAGUGAACCAGAGAAACACACGUUGUGGUAUAUUACCUGGUA, for which the self-cleavage is 0.607.
Next, GUCCUCCUUCACGUUCGCGUGAAAGAGAGAAGUGAACCAGAGAAACACACGUUGUGGUAUAUUACCUGGUA: 1.05.
Take GUCCUCCUUCACGUCCGCGUGAAAGAGAGAAGUGAACCAGAGAAACACACGUUGUGGUAUAUUACCUGGUA: the self-cleavage was 0.948.
In the case of GUCCUCCUUCACGUGCGCGUGAAAGAGAGAAGUGAACCAGAGAAACACACGUUGUCGUAUAUUACCUGGUA it was 0.122; in that of GUCCUCCUUCACGUGCGCGUGAAAGAGAGAAGUGAACCAGAGAAACACACGUUGUAGUAUAUUACCUGGUA, 0.184; in that of GUCCUCCUUCACGUGCGCGUGAAAGAGAGAACUGAACCAGAGAAACACACGUUGUGGUAUAUUACCUGGUA, 0.141.
Next, GUCCUCCUUCACGUGCGCGUGAAAGAGAGAAGUGAACCAGAGAAACACACGUUGUGGUAUAUUACCUGCUA: 0.17; GUCCUCCUUCACGUGCGCGUGAAAGAGACAAGUGAACCAGAGAAACACACGUUGUGGUAUAUUACCUGGUA: 0.131; GUCCUCCUUCACGUGCGCGUGAAAGAGAGAAGUGAACCAGAGAAACACACGUUGUGGUAUAUUACCCGGUA: 0.215.
In the case of GUCCUCCUUCACGUGCGCGUGAAAGAGAGAAGUGAACCAGAGAAACACACGUUGUGGUAUAUUACCAGGUA it was 0.167.
Turning to GUCCUCCUUCACGUGCGCGUGAAAGAGAGAAGUGAACCAGAGAAACACACGUUGUGCUAUAUUACCUGGUA, the self-cleavage is 0.107.
For GUCCUCCUUCACGUGCGCGUGAAAGAGAGAAGUGAACCAGAGAAACACACGUUGUGAUAUAUUACCUGGUA, the self-cleavage is 0.153.
Next, GUCCUCGUUCCCGUGCGCGUGAAAGAGAGAAGUGAACCAGAGAAACACACGUUGUGGUAUAUUACCUGGUA: 0.481.
As to GUCCUCCUUCACGUGCGCGUGAAAGAGAGAAGUUAACCAGAGAAACACACGUUGUGGUAUAUUACCUGGUA, the self-cleavage amounted to 1.32.
With GUCCUCCUUCACGUGCGCGUGAAAGAGAGAAGUAAACCAGAGAAACACACGUUGUGGUAUAUUACCUGGUA, the self-cleavage was found to be 1.17.
In the case of GUCCUCCUUCACGUGCGCGUGAAAGAGAGAAGUGAACCAGAGAAACACACGUCGUGGUAUAUUACCUGGUA it was 0.677; in that of GUCCUCCUUCACGUGCGCGUGAAAGAGAGAAGUGAACCAGAGAAACACACGUUGUGGUAUACUACCUGGUA, 0.196.
Next, GUCCUCCUUCACGUGCUCGUGAAAGAGAGAAGUGAACCAGAGAAACACACGUUGUGGUAUAUUACCUGGUA: 0.892.
In the case of GUCCUCCUUCACGUGCGCGUGAAAGAGAGAAGUGAACCAGAGAAACACACGUUGUGGAAUAUUACCUGGUA it was 0.565.
Consider GUCCUCCUUCACGUGCGCGUGAAAGAGAGAAGUGAACCAGAGAAACACACGUUGUGGUACAUUACCUGGUA, for which the self-cleavage is 0.905.
As for GUCCUCCUUCACGUGCGCGUGAAAGAGAGAAGUGAACCAGAGAAACACACGGUGUGGUAUAUUACCUGGUA, the self-cleavage stood at 0.653.
For the variant GUCCUCCUUCACGUGCGCGUGAAAGAGAGAAGUGAACCAGAGAAACACACGCUGUGGUAUAUUACCUGGUA, the self-cleavage was 0.528.
With GUCCUCCUUCACGUGCGCGUGAAAGAGAGAAGGGAACCAGAGAAACACACGUUGUGGUAUAUUACCUGGUA, the self-cleavage was 0.129.
Consider GUCCUCCUUCACGUGCGCGUGAAAGAGAGAAGCGAACCAGAGAAACACACGUUGUGGUAUAUUACCUGGUA, for which the self-cleavage is 0.157.
Turning to GUCCUCCCUCACGUGCGCGUGAAAGAGAGAAGUGAACCAGAGAAACACACGUUGUGGUAUAUUACCUGGUA, the self-cleavage was found to be 0.52.
In the case of GUCCUCCAUCACGUGCGCGUGAAAGAGAGAAGUGAACCAGAGAAACACACGUUGUGGUAUAUUACCUGGUA it was 0.615.
